Test results as given in patent US20210147541A1 (Kyowa Kirin, published 2021).
Substitutions are numbered along the chain they refer to. Names and notes keep the numbering of the source. Read-outs that look alike come from different tables or passages of the source.

T1: mouse CADM3 (mouse, UniProt Q99N28 23-396)
T1 construct: Full-length gene expressed transiently on Expi293F cells; also called mouse CADM3/Expi293F cells; Mouse CADM3-expressing cells
T1 sequence: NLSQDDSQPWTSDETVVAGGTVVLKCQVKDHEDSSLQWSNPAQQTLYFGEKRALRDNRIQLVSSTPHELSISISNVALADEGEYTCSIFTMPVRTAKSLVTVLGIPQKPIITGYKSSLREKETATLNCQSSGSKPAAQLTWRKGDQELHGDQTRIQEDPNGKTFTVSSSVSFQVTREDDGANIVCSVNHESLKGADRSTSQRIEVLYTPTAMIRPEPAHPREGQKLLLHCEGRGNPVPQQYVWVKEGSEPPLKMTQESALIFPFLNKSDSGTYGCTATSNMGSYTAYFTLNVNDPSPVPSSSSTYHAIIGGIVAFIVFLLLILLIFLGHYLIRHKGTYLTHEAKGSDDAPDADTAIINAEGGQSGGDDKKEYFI

T2: human CADM3 (human, UniProt Q8N126 25-398)
T2 construct: Full-length gene expressed transiently on Expi293F cells; also called cell adhesion molecule 3; human CADM3/Expi293F cells
T2 sequence: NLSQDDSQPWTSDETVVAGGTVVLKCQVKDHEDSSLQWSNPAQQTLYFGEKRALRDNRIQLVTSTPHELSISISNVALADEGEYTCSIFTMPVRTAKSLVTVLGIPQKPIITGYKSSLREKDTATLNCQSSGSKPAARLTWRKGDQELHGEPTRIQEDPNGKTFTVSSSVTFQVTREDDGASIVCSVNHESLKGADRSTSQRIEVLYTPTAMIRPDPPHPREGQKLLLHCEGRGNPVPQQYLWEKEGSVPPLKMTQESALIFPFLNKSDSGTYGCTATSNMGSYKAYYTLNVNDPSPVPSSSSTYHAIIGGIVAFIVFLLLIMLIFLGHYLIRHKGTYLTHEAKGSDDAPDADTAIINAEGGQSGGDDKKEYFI

B1: CADM3349 hG4PE(R409K) (antibody, V domains shown)
VH: QVQLQQWGGGLLTPSETLSLSCDVSGGAFTNYHWTWIRQPPGKGLEWIGEIFHTGTTNYNPSLQGRVAMSIDTTKRQFFLRLTSLTAADTAVYYCARVGKYGWYVGDFWGQGTTVTVSS
VL: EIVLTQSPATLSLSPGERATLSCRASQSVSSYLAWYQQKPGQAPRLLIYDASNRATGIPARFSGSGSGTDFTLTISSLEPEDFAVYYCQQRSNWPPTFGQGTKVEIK
notes: Human IgG4 variant (S228P, L235E, R409K), vector pCI-hKG4PE(R409K)
B2: AVM IgG4PE(R409K)_iCADM3_3R1-L5 dVHH (bispecific antibody)
heavy: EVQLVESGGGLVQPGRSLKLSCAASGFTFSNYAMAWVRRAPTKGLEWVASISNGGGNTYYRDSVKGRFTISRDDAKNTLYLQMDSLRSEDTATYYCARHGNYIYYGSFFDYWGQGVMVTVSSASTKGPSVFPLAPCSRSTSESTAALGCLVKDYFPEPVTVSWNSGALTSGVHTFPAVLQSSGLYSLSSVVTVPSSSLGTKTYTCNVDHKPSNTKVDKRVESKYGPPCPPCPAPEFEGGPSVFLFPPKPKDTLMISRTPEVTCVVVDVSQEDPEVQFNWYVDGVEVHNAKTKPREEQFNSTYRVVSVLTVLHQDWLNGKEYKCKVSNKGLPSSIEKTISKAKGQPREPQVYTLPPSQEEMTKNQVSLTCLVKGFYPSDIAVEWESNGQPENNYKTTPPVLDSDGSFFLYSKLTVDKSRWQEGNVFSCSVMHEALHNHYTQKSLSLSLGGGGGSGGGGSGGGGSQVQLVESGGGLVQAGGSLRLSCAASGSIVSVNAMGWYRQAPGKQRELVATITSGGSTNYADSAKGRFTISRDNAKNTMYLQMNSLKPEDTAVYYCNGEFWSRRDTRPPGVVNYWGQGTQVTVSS
light: QFVLSQPNSVSTNLGSTVKLSCKRSTGNIGSNYVSWYQQHEGRSPTTMIYRDDKRPDGVPDRFSGSIDRSSDSALLTINNVQTEDEADYFCQSYSSGINIFGGGTKLTVLGQPKAAPSVTLFPPSSEELQANKATLVCLISDFYPGAVTVAWKADSSPVKAGVETTTPSKQSNNKYAASSYLSLTPEQWKSHRSYSCQVTHEGSTVEKTVAPTECS
notes: also called anti-AVM-IgG4-CADM3 VHH bispecific antibody
B3: AVM IgG4PE(R409K)_iCADM3_3R1-L8 dVHH (bispecific antibody)
heavy: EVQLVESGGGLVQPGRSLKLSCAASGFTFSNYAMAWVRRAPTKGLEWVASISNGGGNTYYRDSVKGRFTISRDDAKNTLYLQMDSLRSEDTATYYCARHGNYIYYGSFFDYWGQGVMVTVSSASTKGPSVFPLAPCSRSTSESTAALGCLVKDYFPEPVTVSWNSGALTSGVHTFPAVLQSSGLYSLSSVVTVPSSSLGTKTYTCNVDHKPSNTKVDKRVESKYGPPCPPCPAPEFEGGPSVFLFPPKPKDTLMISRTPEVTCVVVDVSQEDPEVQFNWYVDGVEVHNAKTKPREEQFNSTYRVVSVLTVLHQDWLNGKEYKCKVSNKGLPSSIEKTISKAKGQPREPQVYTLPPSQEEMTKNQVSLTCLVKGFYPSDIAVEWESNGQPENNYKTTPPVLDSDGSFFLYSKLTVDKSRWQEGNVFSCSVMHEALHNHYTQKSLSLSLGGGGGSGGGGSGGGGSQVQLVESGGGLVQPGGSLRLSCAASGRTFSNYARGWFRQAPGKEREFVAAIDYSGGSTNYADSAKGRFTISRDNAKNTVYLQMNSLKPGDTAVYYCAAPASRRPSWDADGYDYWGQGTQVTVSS
light: B2 light
notes: as for B2
B4: iCADM3_3R1-L8 VHH-hG4PE(R409K) (Fc fusion)
chain: QVQLVESGGGLVQPGGSLRLSCAASGRTFSNYARGWFRQAPGKEREFVAAIDYSGGSTNYADSAKGRFTISRDNAKNTVYLQMNSLKPGDTAVYYCAAPASRRPSWDADGYDYWGQGTQVTVSS
notes: VHH-Fc antibody; also called anti-CADM3 VHH-Fc antibody iCADM3_3R1-L8; not shown: Hinge-CH2-CH3 region of the human IgG4 heavy chain constant region (IgG4 variant)
B5: CADM3501 hG4PE(R409K) (antibody, V domains shown)
VH: EVQLVESGGGLVQPGGALRLSCSASGFTFSGYWMHWVRQAPGKGLEWVSQISSSGTIIDSADFVKGRFAVSRDNAKDLLYLQMNSLRADDTAVYYCARGPLAKNGFDIWGQGTMVTVSS
VL: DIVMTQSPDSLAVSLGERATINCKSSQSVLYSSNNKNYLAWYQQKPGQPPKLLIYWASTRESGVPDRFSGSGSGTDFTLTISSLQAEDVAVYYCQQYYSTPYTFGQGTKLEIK
notes: as for B1
B6: CADM3316 hG4PE(R409K) (antibody, V domains shown)
VH: EVQLVETGGALVQPGGSLRLSCAASGFTFSSYSMNWVRQAPGKGLEWLSGISGGAFSTHYADSVKGRFTISRDNSKNTLYLQMNSLRAEDTAVYYCARVGRLSGSYNRYYYYYGMDVWGQGTLVTVSS
VL: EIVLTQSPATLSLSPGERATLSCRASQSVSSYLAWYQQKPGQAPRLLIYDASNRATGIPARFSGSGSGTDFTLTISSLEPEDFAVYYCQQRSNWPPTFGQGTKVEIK
notes: as for B1
B7: iCADM3_3R1-L11_02 VHH-hG4PE(R409K) (Fc fusion)
chain: EVQLVESGGGLIQPGGSLRLSCAASGSTVSFNAMGWYRQAPGKGRVLVAVITSGGYTNYADSVKGRFTISRDNSKNTVYLQMNSLRAEDTAVYYCNAEGVYSDYVIMNYWGQGTLVTVSS
notes: also called iCADM3-3R1-L11_02 humanized antibody; not shown: Hinge-CH2-CH3 region of the human IgG4 heavy chain constant region (IgG4 variant)
B8: iCADM3_3R1-L11_01 VHH-hG4PE(R409K) (Fc fusion)
chain: B7 chain with R45L, V46G, V78L, Y79F
notes: also called iCADM3-3R1-L11_01 humanized antibody; not shown: Hinge-CH2-CH3 region of the human IgG4 heavy chain constant region (IgG4 variant)
B9: iCADM3_3R1-L11_04 VHH-hG4PE(R409K) (Fc fusion)
chain: B7 chain with P14A, T28I, G44Q, V46G, V78L, Y79F
notes: also called iCADM3-3R1-L11_04 humanized antibody; not shown: Hinge-CH2-CH3 region of the human IgG4 heavy chain constant region (IgG4 variant)
B10: iCADM3_3R1-L11_06 VHH-hG4PE(R409K) (Fc fusion)
chain: B7 chain with E1Q, I12V, P14A, T28I, V29F, G44Q, V46G, Y79F
notes: also called iCADM3-3R1-L11_06 humanized antibody; not shown: Hinge-CH2-CH3 region of the human IgG4 heavy chain constant region (IgG4 variant)
B11: iCADM3_3R1-L11_03 VHH-hG4PE(R409K) (Fc fusion)
chain: B7 chain with G44Q, V46G, A49S
notes: also called iCADM3-3R1-L11_03 humanized antibody; not shown: Hinge-CH2-CH3 region of the human IgG4 heavy chain constant region (IgG4 variant)
B12: iCADM3_3R1-L11_05 VHH-hG4PE(R409K) (Fc fusion)
chain: B7 chain with T28I, V29F
notes: also called iCADM3-3R1-L11_05 humanized antibody; not shown: Hinge-CH2-CH3 region of the human IgG4 heavy chain constant region (IgG4 variant)
B13: CADM3314 hG4PE(R409K) (antibody, V domains shown)
VH: QVQLVESGGGVVQPGGSLRLSCAASGFSFNNHGMHWVRQAPGKGLEWVTFIRFDGSSKYYADSVKGRFTISRDNSKNTVYLEMNSLRAEDTGVYYCVNTPRGWSFDIWGRGTLVTVSS
VL: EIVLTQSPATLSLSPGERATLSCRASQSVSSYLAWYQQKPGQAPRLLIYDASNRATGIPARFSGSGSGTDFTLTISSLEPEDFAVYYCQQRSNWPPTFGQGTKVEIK
notes: as for B1
B14: CADM3432 hG4PE(R409K) (antibody, V domains shown)
VH: QVQLQQSGPGLVKASQTLSLTCAISGDSVSSRSAAWDWIRQSPSRGLEWLGRTYYRSTWYNDYASSVRSRISINPDTSKNQFSLQLNSVTPEDTAVYYCVRANRKLPAPGQHFYYGMDVWGQGTTVTVSS
VL: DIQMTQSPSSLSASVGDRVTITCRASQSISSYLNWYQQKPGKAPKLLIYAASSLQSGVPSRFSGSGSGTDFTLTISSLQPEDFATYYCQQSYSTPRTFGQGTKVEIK
notes: as for B1
B15: CADM3448 hG4PE(R409K) (antibody, V domains shown)
VH: QVQLQQSGPGLVKPAQTLSLTCAISGDSVSSNSVAWNWVRQSPSRGLEWLGRTYYRSQWYNDYAGSVRSRITISADTSKNQFSLQLNSVTPEDTALYYCVRANRKLPAPGQHFYYGMDVWGQGTTVTVSS
VL: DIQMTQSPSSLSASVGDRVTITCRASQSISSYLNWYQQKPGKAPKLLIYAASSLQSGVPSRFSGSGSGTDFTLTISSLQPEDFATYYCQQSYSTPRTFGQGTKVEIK
notes: as for B1
B16: CADM3404 hG4PE(R409K) (antibody, V domains shown)
VH: EVQLVETGGGVVQPGRSLRLSCAASGFAFSNYGMHWVRQAPGKGLEWVSVIYSGGNTDYADSVKGRFTISRDNSKNTVYLQMNSLRAEDTAVYYCASRRVVPGVIDYFDSWGQGTLVTVSS
VL: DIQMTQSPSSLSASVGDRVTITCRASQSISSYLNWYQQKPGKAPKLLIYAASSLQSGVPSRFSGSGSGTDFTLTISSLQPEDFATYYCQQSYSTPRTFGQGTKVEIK
notes: as for B1
B17: CADM3402 hG4PE(R409K) (antibody, V domains shown)
VH: B16 VH with T7S, V11L, R16G, A24T, A28R, N31M, A40S
VL: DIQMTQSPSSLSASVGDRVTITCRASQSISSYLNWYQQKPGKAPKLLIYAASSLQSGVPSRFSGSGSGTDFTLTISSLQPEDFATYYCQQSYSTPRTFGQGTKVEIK
notes: as for B1
B18: CADM3458 hG4PE(R409K) (antibody, V domains shown)
VH: B16 VH with T7S, A28T, N31R, M34I, S49A
VL: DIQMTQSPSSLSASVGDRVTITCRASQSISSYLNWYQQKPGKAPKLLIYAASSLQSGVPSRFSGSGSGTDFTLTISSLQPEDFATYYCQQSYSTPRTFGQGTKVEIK
notes: as for B1
B19: CADM3351 hG4PE(R409K) (antibody, V domains shown)
VH: EVQLLQSGGGLVQPGGSLRLSCAASGLIFSDHYMDWVRQAPGKGLEWVGSIRNKRNGGSTEYAASVKGRFSISRDDSKNSLYLQMNSLKTEDTAMYFCATTRTGYQGFYGMDVWGQGTTVTVSS
VL: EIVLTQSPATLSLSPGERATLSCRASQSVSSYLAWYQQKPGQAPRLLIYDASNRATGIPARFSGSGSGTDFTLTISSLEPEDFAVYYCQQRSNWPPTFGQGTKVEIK
notes: as for B1

Experiments:
[1] = target: T1, mouse CADM3; experiment: flow cytometry, 10 ug/mL, mouse CADM3/Expi293F vs parent Expi293F cells
[2] = target: T3, mCADM3-GST (mouse); experiment: SPR (Biacore T-100), antibody captured, mCADM3-GST as analyte
T3 construct: also called extracellular domain of mouse CADM3 to which GST was added at the C-terminal side; mouse CADM3-GST
Procedure: (§1) The affinity of the anti-CADM3 antibodies produced in Example 2 for human CADM3 and mouse CADM3 was measured using Biacore T-100 (GE Healthcare). Each of the antibodies was immobilized on a […] sensor chip using a Human antibody Capture kit, and the binding ability was evaluated using hCADM3-GST and mCADM3-GST produced in Example 4 as analytes.
(§2) The obtained sensorgram was analyzed with BIA evaluation software, and the dissociation constant (KD value) was calculated.

[3] = target: T4, hCADM3-GST (human); experiment: SPR (Biacore T-100), antibody captured, hCADM3-GST as analyte
T4 construct: also called extracellular domain of human CADM3 to which GST was added at the C-terminal side; human CADM3-GST
Procedure: as §1, §2

[4] = target: T2, human CADM3; experiment: flow cytometry, 10 ug/mL, human CADM3/Expi293F vs parent Expi293F cells
Procedure: By using the cells, the reactivity of the antibodies produced in Example 2 with the CADM3-expressing cells was analyzed by a fluorescence activated cell sorting (FACS) method according to the following procedure.
(§3) After washing with SB, the cells were suspended in SB, and the fluorescence intensity of each cell was measured using a flow cytometer FACS CANTO II (manufactured by Becton, Dickinson and Company). Note that as a negative control, 10 μg/mL of the anti-AVM antibody was used.
(§4) The detection results were analyzed, and a mean fluorescence intensity (MFI) was calculated using a geometric mean. Further, with respect to the MFI when the concentration of each antibody was 10 μg/mL, the ratio of the MFI (mean fluorescence intensity ratio) between the human CADM3/Expi293F cells and the Expi293F cells (parent cell line) was calculated.

[5] = target: T1, mouse CADM3; experiment: flow cytometry, 10 ug/mL, mouse CADM3/Expi293F vs parent Expi293F cells; remark: listed apart in the source
Procedure: as §3, §4
Further, also with respect to AVM IgG4PE(R409K)_iCADM3_3R1-L5 dVHH, AVM IgG4PE(R409K)_iCADM3_3R1-L8 dVHH, AVM IgG4PE(R409K)_iCADM3_3R1-L10 dVHH, and AVM IgG4PE(R409K)_iCADM3_3R1-L11 dVHH, reactivity with the Expi293F cells, the human CADM3/Expi293F cells, and the mouse CADM3/Expi293F cells was analyzed by the same procedure, and the results are shown in Table 5.

[6] = target: T4, hCADM3-GST; experiment: SPR (Biacore T-100), antibody captured, hCADM3-GST as analyte; remark: listed apart in the source
Procedure: as §1
(§5) With respect to the produced humanized anti-CADM3 antibodies, affinity for CADM3 by surface plasmon resonance detection was evaluated by the same procedure as in Example 6.

[7] = target: T3, mCADM3-GST; experiment: SPR (Biacore T-100), antibody captured, mCADM3-GST as analyte; remark: listed apart in the source
Procedure: as §1, §5

[8] = target: T2, human CADM3; experiment: flow cytometry, 10 ug/mL, human CADM3/Expi293F vs parent Expi293F cells; remark: listed apart in the source
Procedure: as §3, §4
(§6) With respect to the produced humanized anti-CADM3 VHH-Fc antibodies, reactivity with Expi293F cells, human CADM3/Expi293F cells, and mouse CADM3/Expi293F cells was analyzed by the same procedure as in Example 3.

[9] = target: T1, mouse CADM3; experiment: flow cytometry, 10 ug/mL, mouse CADM3/Expi293F vs parent Expi293F cells; remark: listed apart in the source
Procedure: as §3, §4, §6

Mean fluorescence intensity ratio [1]	binding result [2]	binding result [3]	Mean fluorescence intensity ratio [4]	Mean fluorescence intensity ratio [8]	Mean fluorescence intensity ratio [9]	further results	Binder
48.7	binds	binds	4.8				B1
						Mean fluorescence intensity ratio [5]: 1.96	B2
						Mean fluorescence intensity ratio [5]: 3.65	B3
8.2			5.84			Kd [6]: 12.5 nM; koff [6]: 0.00051 s⁻¹; kon [6]: 41000 M⁻¹ s⁻¹; Kd [7]: 4.39 nM; koff [7]: 0.00063 s⁻¹; kon [7]: 140000 M⁻¹ s⁻¹	B4
36.1	binds	binds	44.9				B5
7.1	binds	binds	6.5				B6
				12.4	27.9		B7
				12.2	12.5		B8
				22.5	26.7		B9
				33	42.2		B10
				24.4	33.8		B11
				11.1	24.6		B12
9.2	binds	binds	10				B13
14.6	binds	binds	14.7				B14
10.4	binds	binds	9.4				B15
8.2	binds	binds	8.7				B16
9.4	binds	binds	10.8				B17
5.4	binds	binds	5.7				B18
8.8	binds	binds	8.2				B19
